This passage reports switch fluorescence ratio results from the supplement of paper PMC10126150.

± gives the standard deviation of the averaged measurements.
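Note: ATP exposure 15 min at 22 °C before imaging.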

This data set has as its system ATP. Nature of the data set: switch fluorescence ratio, 500 uM ATP over buffer (Cy3 cluster intensity, sum of 5 cycles each) (fold (ratio)); higher = stronger signal-on switching upon ATP binding; sequences stand for … in TCGTCGGCAGCGTCAGATGTGTATAAGAGACAGTTTTTTTTTTTTTTTTTTTTTTTTT…TC. As to conditions: aptamer strand: ATP DNA aptamer (quencher-CACCTGGGGGAGTATTGCGGAGGAAGG + anchor), 100 nM annealed; ATP concentration: 500 uM. The method in brief: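 Imaging in selection buffer was followed by imaging after 15 min with 500 uM ATP at 22 °C, for Cy3-labelled switching-strand clusters annealed to 100 nM quencher-labelled ATP aptamer on a modified Illumina MiSeq flow-cell. Five of these buffer/ATP cycles ran, separated by NaOH stripping and re-annealing. The fluorescence ratio per cluster is summed target-cycle over summed buffer-cycle Cy3 intensity, averaged per switch-domain sequence; clusters outside 100-1000 RFU were removed.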
Regarding CCACCAATTT, the switch fluorescence ratio was found to be 1.8 ± 1.2. The same measure for TGTCCTAAAA: 1.05 ± 0.04; for GAAATTAAGT: 1.02 ± 0.045. The value for AGGAATTTTT was 0.968 ± 0.018. The value for ATTATGCCTG was 1.06 ± 0.044; that for AGGGGTTTGT was 1.02 ± 0.017; that for CCCTGGGGTA was 1.07 ± 0.056.

As for TTTATGGAGT, the switch fluorescence ratio came to 1.024 ± 0.0018. For TGTTAGGGGC, the switch fluorescence ratio came to 0.98 ± 0.046.

On to AAGATGCTTA, for which the switch fluorescence ratio turned out to be 0.9863 ± 0.0012. The same measure for GTTATGTTGT: 1.01 ± 0.04. For ATGGTGGGCT, the switch fluorescence ratio amounted to 0.9811 ± 0.0032. Turning to TTGGGGCCGG, the switch fluorescence ratio was 1.003 ± 0.0095. The same measure for TATGTAGAGA: 0.99 ± 0.023; for AATGTAGGAC: 1.018 ± 0.0026. The same measure for TTCAAGCAAG: 1.15 ± 0.015; for TTTGCCAGTT: 0.9847 ± 0.0019. Take TAGTTTAGTT: the switch fluorescence ratio came to 1 ± 0.015. The same measure for GTTTGCCTCC: 1.03 ± 0.021; for GAAGGCAGTG: 1 ± 0.011; for TAAAGCGTTT: 1.12 ± 0.27. Consider CTCAGTTTCT, for which the switch fluorescence ratio stood at 1.02 ± 0.03. Consider TTTTAAATGC, for which the switch fluorescence ratio came to 1.07 ± 0.13. The value for GTTGGGCTTT was 0.98 ± 0.025.

Consider GTTTCAAGAG, for which the switch fluorescence ratio worked out at 1.03 ± 0.012. The value for AAAGAATTCA was 1.05 ± 0.051; that for GGGCTTCGTT was 0.9929 ± 0.0074. Consider TGGGCAACTC, for which the switch fluorescence ratio was found to be 1.06 ± 0.021. The value for TTTGATCGGA was 0.965 ± 0.062; that for TTGTAGTTTG was 0.977 ± 0.0071; that for GACTCGAGGG was 0.99 ± 0.083. As for CCTCTGATTT, the switch fluorescence ratio was found to be 1.47 ± 0.3.

Regarding CGGTTAGATA, the switch fluorescence ratio was found to be 0.987 ± 0.019.

On to ATAGTTAAAC, for which the switch fluorescence ratio came to 1.01 ± 0.012.

In the case of TCAGCAGGTT, the switch fluorescence ratio was 2.85 ± 2.2. The value for GCCACTTACA was 1.36 ± 0.025; that for ACGTCAAAAC was 2.91 ± 0.41; that for GTGTGGGATC was 1.013 ± 0.0039. The value for TATTTGGGTG was 1.05 ± 0.023; that for CCTAGTACCT was 1.19 ± 0.05. The same measure for GACGCGGCGT: 1.02 ± 0.029; for AATTGACTTT: 1.04 ± 0.011. As for CCAATTTGTG, the switch fluorescence ratio is 1 ± 0.028. The same measure for TAGGTGACAA: 1 ± 0.015. For the sequence CCAAATTGTG, the switch fluorescence ratio came to 1.03 ± 0.03. In the case of GAGTGATGGC, the switch fluorescence ratio is 1.03 ± 0.014.

As for AAAATGTTCC, the switch fluorescence ratio was 1.19 ± 0.025. With CCTAGTTTTT, the switch fluorescence ratio was found to be 0.997 ± 0.023.

AGGCGGACGT: the switch fluorescence ratio came out at 1 ± 0.0089. The same measure for GTAGGGGGTT: 0.9951 ± 0.0041; for CCGTGTTGCG: 1.01 ± 0.022. The value for TGCTTTTTA was 0.971 ± 0.051; that for AAGTGTCGGG was 0.994 ± 0.025; that for GAGAGGAGGC was 1.07 ± 0.063. Regarding GGAGAAGAGA, the switch fluorescence ratio is 0.9875 ± 0.004. The value for TTATGTTTTA was 0.9965 ± 0.0046; that for TCGGCTGCGT was 1.03 ± 0.018; that for TCCAGGGAAT was 1.04 ± 0.029. In the case of TCAATCGTGG, the switch fluorescence ratio stood at 1.01 ± 0.021. The same measure for CGTGGTTAGT: 0.964 ± 0.023; for ACTTGGGGGT: 1.02 ± 0.016.

As for TTTTCCTGCT, the switch fluorescence ratio is 1.07 ± 0.082. The value for GTAACAGATT was 0.976 ± 0.039; that for TTTCCCCAAT was 1.07 ± 0.063; that for TTTAAGGTTG was 0.986 ± 0.023. The same measure for ATCATGGTGC: 1.13 ± 0.074; for CGAGGGGGCT: 0.99 ± 0.02.

On to AAGCCCGAGG, for which the switch fluorescence ratio amounted to 0.981 ± 0.02. The value for ATTTGTTATT was 1.01 ± 0.024. For GGTATCCGGG, the switch fluorescence ratio came out at 0.974 ± 0.019. The value for GGATGTTTTG was 1.03 ± 0.015.

For GGTTTTTGTG, the switch fluorescence ratio is 1.01 ± 0.034. As for TATCGTCGGG, the switch fluorescence ratio is 1.008 ± 0.0064. With ATTTTGAATC, the switch fluorescence ratio came out at 0.973 ± 0.013. The value for AAGGGTATAT was 0.9834 ± 0.0063; that for GGGTGATGTG was 0.955 ± 0.022; that for TAGATGTAAC was 0.975 ± 0.029. The same measure for GCACCTGGAT: 1.01 ± 0.027. The value for CTCGGCGGAG was 1.026 ± 0.0082.
